Read-outs that look alike come from different tables or passages of the source.
Legend:
Experiment in all cases: single-molecule TIRF microscopy of live cells
[1] = molecular target: DNA-CAR (DNA-based chimeric antigen receptor; HA-tagged non-fluorescent version, pHR-DNA-CAR-IRES-puro) (UniProt P42081)
[2] = molecular target: DNA-CAR (DNA-based chimeric antigen receptor; HA-tagged non-fluorescent version, pHR-DNA-CAR-IRES-puro) (UniProt P42081); remark: listed apart in the source
[3] = molecular target: DNA-CAR (DNA-based chimeric antigen receptor; HA-tagged non-fluorescent version, pHR-DNA-CAR-IRES-puro) (UniProt P42081); remark: listed apart in the source

Sequence of ZAP70-GFP (P43403 whole entry): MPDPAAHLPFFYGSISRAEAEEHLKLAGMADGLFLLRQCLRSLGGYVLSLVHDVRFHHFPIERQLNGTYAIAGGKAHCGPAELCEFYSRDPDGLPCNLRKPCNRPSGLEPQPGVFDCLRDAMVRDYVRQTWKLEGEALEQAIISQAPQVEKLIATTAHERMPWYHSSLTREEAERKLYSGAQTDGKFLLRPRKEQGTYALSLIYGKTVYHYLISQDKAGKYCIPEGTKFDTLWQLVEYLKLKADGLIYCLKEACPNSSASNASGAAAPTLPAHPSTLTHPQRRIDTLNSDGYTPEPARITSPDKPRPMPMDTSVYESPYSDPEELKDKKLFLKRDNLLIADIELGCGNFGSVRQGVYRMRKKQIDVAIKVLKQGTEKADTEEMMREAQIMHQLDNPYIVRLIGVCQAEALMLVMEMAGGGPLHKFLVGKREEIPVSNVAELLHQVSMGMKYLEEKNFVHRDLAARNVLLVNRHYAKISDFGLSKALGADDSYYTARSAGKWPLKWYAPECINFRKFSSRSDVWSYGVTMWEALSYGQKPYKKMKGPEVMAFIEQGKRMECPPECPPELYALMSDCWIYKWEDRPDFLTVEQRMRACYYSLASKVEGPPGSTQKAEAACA

ZAP70-GFP (from UniProt P43403 1-619) (enzyme)
percent of single bound ligand-receptors that recruit ZAP70-GFP [1]: 2.2%
percent of receptor-ligand clusters of 3 or more ligands that recruit ZAP70-GFP [2]: 53%
percent of single bound ligands that recruit ZAP70-GFP [2]: 2%
duration of ZAP70-GFP recruitment at a single ligated receptor [3]: < 20 s
half-life of the bound time on a single ligated receptor [3]: 10 s
percent of receptor-ligand clusters of 3 or more ligands that recruit ZAP70-GFP [3]: 83%
percent of single bound ligand-receptors that recruit ZAP70-GFP [3]: 6.3%
percent of single bound receptors that recruit ZAP70-GFP [3]: 20%

Reference: publication doi:10.1101/062877
